From the Human Domainome abundance scans (Beltran et al. 2025)
± gives the uncertainty stated by the source.

B1: POU domain, class 3, transcription factor 2, residues 262 to 338; numbered along this chain, P20265 (parent)
chain: EDTPTSDDLEQFAKQFKQRRIKLGFTQADVGLALGTLYGNVFSQTTICRFEALQLSFKNMCKLKPLLNKWLEEADSS

Variants of: B1
Assay: abundance fitness (aPCA) (normalised: wild type 0, dead -1); higher = more abundant; growth selection in yeast, the domain comes from the species named
Settings: Homo sapiens

Q: With EDTPTSDDLEQFAKQFKQRRIKLGFTQADVGLALGTLYGNVFSQTTICRFEALQLSFKNMCKLKVLLNKWLEEADSS [P65V] as the variant, how does the abundance fitness read?
A: The abundance fitness was -0.082 ± 0.074.

Q: With EDTPTSDDLEQFAKQFKQRRIKLGFTQADVGLALGTLYGNVFSQTTICRFEALQLSFKNMCKLKELLNKWLEEADSS [P65E] as the variant, how does the abundance fitness read?
A: Its abundance fitness is -0.133 ± 0.072.

Q: Which abundance fitness does the source give for EDTPTSDDLEQFAKQFKQRRIKLGFTQADVGLALGTLYGNVFSQTTICRFEALQLSFKNMCKLKNLLNKWLEEADSS [P65N] here?
A: The abundance fitness was -0.138 ± 0.17.

Q: Which abundance fitness does the source give for EDTPTSDDLEQFAKQFKQRRIKLGFTQADVGLALGTLYGNVFSQTTICRFEALQLSFKNMCKLKWLLNKWLEEADSS [P65W] here?
A: The abundance fitness was -0.201 ± 0.092.

Q: Which abundance fitness does the source give for EDTPTSDDLEQFAKQFKQRRIKLGFTQADVGLALGTLYGNVFSQTTICRFEALQLSFKNMCKLKALLNKWLEEADSS [P65A] here?
A: The abundance fitness was -0.139 ± 0.094.

Q: With EDTPTSDDLEQFAKQFKQRRIKLGFTQADVGLALGTLYGNVFSQTTICRFEALQLSFKNMCKLKTLLNKWLEEADSS [P65T] as the variant, how does the abundance fitness read?
A: The abundance fitness was -0.059 ± 0.12.

Q: With EDTPTSDDLEQFAKQFKQRRIKLGFTQADVGLALGTLYGNVFSQTTICRFEALQLSFKNMCKLKQLLNKWLEEADSS [P65Q] as the variant, how does the abundance fitness read?
A: Its abundance fitness is 0.124 ± 0.14.

Q: Which abundance fitness does the source give for EDTPTSDDLEQFAKQFKQRRIKLGFTQADVGLALGTLYGNVFSQTTICRFEALQLSFKNMCKLKYLLNKWLEEADSS [P65Y] here?
A: Its abundance fitness is 0.137 ± 0.23.

Q: Which abundance fitness does the source give for EDTPTSDDLEQFAKQFKQRRIKLGFTQADVGLALGTLYGNVFSQTTICRFEALQLSFKNMCKLKCLLNKWLEEADSS [P65C] here?
A: Its abundance fitness is 0.038 ± 0.2.

Q: Which abundance fitness does the source give for EDTPTSDDLEQFAKQFKQRRIKLGFTQADVGLALGTLYGNVFSQTTICRFEALQLSFKNMCKLKGLLNKWLEEADSS [P65G] here?
A: The abundance fitness was -0.108 ± 0.05.

Q: For EDTPTSDDLEQFAKQFKQRRIKLGFTQADVGLALGTLYGNVFSQTTICRFEALQLSFKNMCKLKRLLNKWLEEADSS [P65R], which abundance fitness is on record?
A: The abundance fitness was -0.182 ± 0.051.

Q: For EDTPTSDDLEQFAKQFKQRRIKLGFTQADVGLALGTLYGNVFSQTTICRFEALQLSFKNMCKLKSLLNKWLEEADSS [P65S], which abundance fitness is on record?
A: The abundance fitness was -0.38 ± 0.19.

Q: Which abundance fitness does the source give for EDTPTSDDLEQFAKQFKQRRIKLGFTQADVGLALGTLYGNVFSQTTICRFEALQLSFKNMCKLKKLLNKWLEEADSS [P65K] here?
A: The abundance fitness was -0.213 ± 0.22.

Q: With EDTPTSDDLEQFAKQFKQRRIKLGFTQADVGLALGTLYGNVFSQTTICRFEALQLSFKNMCKLKHLLNKWLEEADSS [P65H] as the variant, how does the abundance fitness read?
A: Its abundance fitness is -0.034 ± 0.25.

Q: With EDTPTSDDLEQFAKQFKQRRIKLGFTQADVGLALGTLYGNVFSQTTICRFEALQLSFKNMCKLKDLLNKWLEEADSS [P65D] as the variant, how does the abundance fitness read?
A: Its abundance fitness is -0.118 ± 0.097.

Q: Which abundance fitness does the source give for EDTPTSDDLEQFAKQFKQRRIKLGFTQADVGLALGTLYGNVFSQTTICRFEALQLSFKNMCKLKLLLNKWLEEADSS [P65L] here?
A: Its abundance fitness is -0.375 ± 0.13.

Q: For EDTPTSDDLEQFAKQFKQRRIKLGFTQADVGLALGTLYGNVFSQTTICRFEALQLSFKNMCKLKPGLNKWLEEADSS [L66G], which abundance fitness is on record?
A: The abundance fitness was -0.536 ± 0.037.

Q: For EDTPTSDDLEQFAKQFKQRRIKLGFTQADVGLALGTLYGNVFSQTTICRFEALQLSFKNMCKLKPWLNKWLEEADSS [L66W], which abundance fitness is on record?
A: The abundance fitness was -0.148 ± 0.034.

Q: Which abundance fitness does the source give for EDTPTSDDLEQFAKQFKQRRIKLGFTQADVGLALGTLYGNVFSQTTICRFEALQLSFKNMCKLKPMLNKWLEEADSS [L66M] here?
A: The abundance fitness was -0.015 ± 0.042.

Q: With EDTPTSDDLEQFAKQFKQRRIKLGFTQADVGLALGTLYGNVFSQTTICRFEALQLSFKNMCKLKPFLNKWLEEADSS [L66F] as the variant, how does the abundance fitness read?
A: The abundance fitness was -0.05 ± 0.048.

Q: With EDTPTSDDLEQFAKQFKQRRIKLGFTQADVGLALGTLYGNVFSQTTICRFEALQLSFKNMCKLKPCLNKWLEEADSS [L66C] as the variant, how does the abundance fitness read?
A: The abundance fitness was -0.239 ± 0.05.

Q: With EDTPTSDDLEQFAKQFKQRRIKLGFTQADVGLALGTLYGNVFSQTTICRFEALQLSFKNMCKLKPNLNKWLEEADSS [L66N] as the variant, how does the abundance fitness read?
A: The abundance fitness was -0.504 ± 0.1.

Q: With EDTPTSDDLEQFAKQFKQRRIKLGFTQADVGLALGTLYGNVFSQTTICRFEALQLSFKNMCKLKPYLNKWLEEADSS [L66Y] as the variant, how does the abundance fitness read?
A: Its abundance fitness is -0.22 ± 0.081.

Q: With EDTPTSDDLEQFAKQFKQRRIKLGFTQADVGLALGTLYGNVFSQTTICRFEALQLSFKNMCKLKPPLNKWLEEADSS [L66P] as the variant, how does the abundance fitness read?
A: Its abundance fitness is -0.437 ± 0.064.

Q: With EDTPTSDDLEQFAKQFKQRRIKLGFTQADVGLALGTLYGNVFSQTTICRFEALQLSFKNMCKLKPSLNKWLEEADSS [L66S] as the variant, how does the abundance fitness read?
A: Its abundance fitness is -0.423 ± 0.041.

Q: Which abundance fitness does the source give for EDTPTSDDLEQFAKQFKQRRIKLGFTQADVGLALGTLYGNVFSQTTICRFEALQLSFKNMCKLKPDLNKWLEEADSS [L66D] here?
A: Its abundance fitness is -0.767 ± 0.23.

Q: With EDTPTSDDLEQFAKQFKQRRIKLGFTQADVGLALGTLYGNVFSQTTICRFEALQLSFKNMCKLKPQLNKWLEEADSS [L66Q] as the variant, how does the abundance fitness read?
A: The abundance fitness was -0.233 ± 0.046.

Q: With EDTPTSDDLEQFAKQFKQRRIKLGFTQADVGLALGTLYGNVFSQTTICRFEALQLSFKNMCKLKPALNKWLEEADSS [L66A] as the variant, how does the abundance fitness read?
A: The abundance fitness was -0.137 ± 0.034.

Q: With EDTPTSDDLEQFAKQFKQRRIKLGFTQADVGLALGTLYGNVFSQTTICRFEALQLSFKNMCKLKPRLNKWLEEADSS [L66R] as the variant, how does the abundance fitness read?
A: Its abundance fitness is -0.242 ± 0.029.

Q: For EDTPTSDDLEQFAKQFKQRRIKLGFTQADVGLALGTLYGNVFSQTTICRFEALQLSFKNMCKLKPHLNKWLEEADSS [L66H], which abundance fitness is on record?
A: Its abundance fitness is -0.274 ± 0.08.

Q: Which abundance fitness does the source give for EDTPTSDDLEQFAKQFKQRRIKLGFTQADVGLALGTLYGNVFSQTTICRFEALQLSFKNMCKLKPELNKWLEEADSS [L66E] here?
A: The abundance fitness was -0.637 ± 0.061.

Q: With EDTPTSDDLEQFAKQFKQRRIKLGFTQADVGLALGTLYGNVFSQTTICRFEALQLSFKNMCKLKPVLNKWLEEADSS [L66V] as the variant, how does the abundance fitness read?
A: The abundance fitness was -0.077 ± 0.03.

Q: Which abundance fitness does the source give for EDTPTSDDLEQFAKQFKQRRIKLGFTQADVGLALGTLYGNVFSQTTICRFEALQLSFKNMCKLKPILNKWLEEADSS [L66I] here?
A: The abundance fitness was -0.071 ± 0.063.

Q: For EDTPTSDDLEQFAKQFKQRRIKLGFTQADVGLALGTLYGNVFSQTTICRFEALQLSFKNMCKLKPKLNKWLEEADSS [L66K], which abundance fitness is on record?
A: The abundance fitness was -0.096 ± 0.043.

Q: Which abundance fitness does the source give for EDTPTSDDLEQFAKQFKQRRIKLGFTQADVGLALGTLYGNVFSQTTICRFEALQLSFKNMCKLKPLMNKWLEEADSS [L67M] here?
A: Its abundance fitness is 0.006 ± 0.085.
